Blank lines part the entries; values can stand above or below the molecule they belong to.
How the values were obtained:
human CD20 antigen [1] = target: T1, human CD20 antigen (human, UniProt P11836 1-297); experiment: SB cell-ELISA, negative control, concentration not clear
T1 construct: whole, on cells; also called CD20/CHO cells; CD20 on Raji cells
T1 sequence (looked up): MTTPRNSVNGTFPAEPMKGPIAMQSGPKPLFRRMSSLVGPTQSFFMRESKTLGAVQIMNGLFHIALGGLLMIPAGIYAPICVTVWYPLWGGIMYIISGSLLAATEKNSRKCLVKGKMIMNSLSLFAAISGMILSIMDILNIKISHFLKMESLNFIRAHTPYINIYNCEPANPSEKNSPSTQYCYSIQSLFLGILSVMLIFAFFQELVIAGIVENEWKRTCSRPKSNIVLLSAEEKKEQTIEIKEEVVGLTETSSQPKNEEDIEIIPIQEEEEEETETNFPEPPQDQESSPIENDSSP

human CD20 antigen [2] = target: T1, human CD20 antigen; experiment: CD20/CHO cell-ELISA, negative control, concentration not clear
human CD20 antigen [3] = target: T1, human CD20 antigen; experiment: Raji cell-ELISA, negative control, concentration not clear
human CD20 antigen [4] = target: T1, human CD20 antigen; experiment: CD20/CHO cell-ELISA, antibody at 100 ng/ml
human CD20 antigen [5] = target: T1, human CD20 antigen; experiment: Raji cell-ELISA, antibody at 32 ng/ml
From the text: (§1) Several murine anti-CD20 monoclonal antibodies and 2B8 were reacted by using 96-well plates to which the SB cells, Raji cells, CD20/CHO cells and CD20 CHO parent cell line were adhered.

human CD20 antigen [6] = target: T1, human CD20 antigen; experiment: SB cell-ELISA, antibody at 3 ng/ml
human CD20 antigen [7] = target: T1, human CD20 antigen; experiment: CD20/CHO cell-ELISA, antibody at 1000 ng/ml
From the text: as §1

human CD20 antigen [8] = target: T1, human CD20 antigen; experiment: CD20/CHO cell-ELISA, antibody at 320 ng/ml
From the text: as §1

human CD20 antigen [9] = target: T1, human CD20 antigen; experiment: SB cell-ELISA, antibody at 32 ng/ml
From the text: as §1

human CD20 antigen [10] = target: T1, human CD20 antigen; experiment: SB cell-ELISA, antibody at 320 ng/ml
From the text: as §1

human CD20 antigen [11] = target: T1, human CD20 antigen; experiment: Raji cell-ELISA, antibody at 100 ng/ml
From the text: as §1

human CD20 antigen [12] = target: T1, human CD20 antigen; experiment: CD20/CHO cell-ELISA, antibody at 32 ng/ml
human CD20 antigen [13] = target: T1, human CD20 antigen; experiment: SB cell-ELISA, antibody at 1000 ng/ml
From the text: as §1

human CD20 antigen [14] = target: T1, human CD20 antigen; experiment: Raji cell-ELISA, antibody at 320 ng/ml
From the text: as §1

human CD20 antigen [15] = target: T1, human CD20 antigen; experiment: Raji cell-ELISA, antibody at 1000 ng/ml
From the text: as §1

human CD20 antigen [16] = target: T1, human CD20 antigen; experiment: SB cell-ELISA, antibody at 100 ng/ml
From the text: as §1

human CD20 antigen [17] = target: T1, human CD20 antigen; experiment: Raji cell-ELISA, antibody at 10 ng/ml
From the text: as §1

human CD20 antigen [18] = target: T1, human CD20 antigen; experiment: CD20/CHO cell-ELISA, antibody at 10 ng/ml
human CD20 antigen [19] = target: T1, human CD20 antigen; experiment: Raji cell-ELISA, antibody at 3 ng/ml
human CD20 antigen [20] = target: T1, human CD20 antigen; experiment: SB cell-ELISA, antibody at 10 ng/ml
From the text: as §1

human CD20 antigen [21] = target: T1, human CD20 antigen; experiment: CD20/CHO cell-ELISA, antibody at 3 ng/ml
human CD20 antigen [22] = target: T1, human CD20 antigen; experiment: CD20/CHO cell-ELISA, antibody at 100 ng/ml; remark: listed apart in the source
From the text: as §1

human CD20 antigen [23] = target: T1, human CD20 antigen; experiment: CD20/CHO cell-ELISA, antibody at 10 ng/ml; remark: listed apart in the source
From the text: as §1

human CD20 antigen [24] = target: T1, human CD20 antigen; experiment: CD20/CHO cell-ELISA, antibody at 32 ng/ml; remark: listed apart in the source
From the text: as §1

human CD20 antigen [25] = target: T1, human CD20 antigen; experiment: CD20/CHO cell-ELISA, antibody at 3 ng/ml; remark: listed apart in the source
From the text: as §1

A492 (human CD20 antigen [1]): 0.028 A492 | A492 (human CD20 antigen [2]): 0.07 A492 | A492 (human CD20 antigen [3]): 0.035 A492
Molecule: NC

A492 (human CD20 antigen [4]): 1.09 A492 | A492 (human CD20 antigen [5]): 0.038 A492 | A492 (human CD20 antigen [6]): 0.053 A492 | A492 (human CD20 antigen [7]): 2.29 A492 | A492 (human CD20 antigen [8]): 1.66 A492 | A492 (human CD20 antigen [9]): 0.038 A492 | A492 (human CD20 antigen [10]): 0.091 A492 | A492 (human CD20 antigen [11]): 0.055 A492 | A492 (human CD20 antigen [12]): 0.561 A492 | A492 (human CD20 antigen [13]): 0.337 A492 | A492 (human CD20 antigen [14]): 0.121 A492 | A492 (human CD20 antigen [15]): 0.329 A492 | A492 (human CD20 antigen [16]): 0.045 A492 | A492 (human CD20 antigen [17]): 0.034 A492 | A492 (human CD20 antigen [18]): 0.174 A492 | A492 (human CD20 antigen [19]): 0.046 A492 | A492 (human CD20 antigen [20]): 0.037 A492 | A492 (human CD20 antigen [21]): 0.089 A492
Molecule: 2B8 (antibody)

A492 (human CD20 antigen [5]): 0.057 A492 | A492 (human CD20 antigen [22]): 0.842 A492 | A492 (human CD20 antigen [23]): 0.105 A492 | A492 (human CD20 antigen [7]): 2.23 A492 | A492 (human CD20 antigen [8]): 1.33 A492 | A492 (human CD20 antigen [9]): 0.039 A492 | A492 (human CD20 antigen [10]): 0.147 A492 | A492 (human CD20 antigen [24]): 0.238 A492 | A492 (human CD20 antigen [11]): 0.121 A492 | A492 (human CD20 antigen [13]): 0.403 A492 | A492 (human CD20 antigen [25]): 0.068 A492 | A492 (human CD20 antigen [14]): 0.277 A492 | A492 (human CD20 antigen [15]): 0.748 A492 | A492 (human CD20 antigen [16]): 0.071 A492 | A492 (human CD20 antigen [17]): 0.046 A492 | A492 (human CD20 antigen [20]): 0.036 A492
B1: murine anti-CD20 monoclonal antibody 1K1422 (antibody, V domains shown)
VH: QVQLQQPGAELVKPGASVKMSCRASGYTFTNYNMHWIKQTPGQGLEWIGAIYPGSGDTSYNRKFKGKATLTADTSSSTAYMQFSSLTSADSAVYYCARFTYYYGGTYGAMDYWGQGTSVTVSL
VL: QIVLTQSPPIMSASLGEEITLTCSASSRVSYMLWYQQKSGTSPKLLIYSTSNLASGVPSRFSGSGSGTFYSLTISSVEAEDAADYYCHQWTSNPCTFGGGTKLEIK
notes: Mouse monoclonal antibody from a hybridoma

Reference: patent US20090197330A1 (BIOMEDICS, published 2009)
